In patent US5039791A, “Peptide fragments of tissue plasminogen activator” (Monsanto Company, priority 1989, dated 1991):
Where no end group is shown, it is not given here.

Experiments:
[1] = biological target: T1, fibrin (Homo sapiens, UniProt P02671+P02675+P02679); test: Fibrin binding: binding of tPA to fibrin, tPA antigen in supernatant by ELISA; conditions: 15 μg/ml peptide; 200 ng/ml single chain melanoma tPA, 200 μg/ml human fibrinogen; no peptide = 48
T1 construct: purchased Kabi Vitrum
T1 sequence (P02671 20-644 isoform P02671-2 limits assumed): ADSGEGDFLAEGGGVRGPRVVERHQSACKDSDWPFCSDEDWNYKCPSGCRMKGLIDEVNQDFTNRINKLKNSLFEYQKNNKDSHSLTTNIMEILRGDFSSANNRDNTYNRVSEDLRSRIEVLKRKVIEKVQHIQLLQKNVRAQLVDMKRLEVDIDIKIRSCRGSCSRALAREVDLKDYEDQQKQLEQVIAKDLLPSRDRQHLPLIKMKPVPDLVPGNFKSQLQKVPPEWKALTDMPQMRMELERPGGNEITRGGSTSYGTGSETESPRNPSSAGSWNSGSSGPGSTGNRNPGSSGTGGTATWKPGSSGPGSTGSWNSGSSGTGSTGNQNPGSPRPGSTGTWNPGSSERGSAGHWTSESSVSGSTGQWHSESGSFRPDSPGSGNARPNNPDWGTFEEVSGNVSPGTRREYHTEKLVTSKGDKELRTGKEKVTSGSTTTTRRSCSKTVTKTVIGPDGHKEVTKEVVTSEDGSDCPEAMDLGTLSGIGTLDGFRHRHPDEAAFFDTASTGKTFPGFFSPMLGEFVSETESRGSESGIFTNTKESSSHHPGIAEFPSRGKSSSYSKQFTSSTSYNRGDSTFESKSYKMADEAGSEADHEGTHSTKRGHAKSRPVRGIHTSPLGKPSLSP
T1 sequence (P02675 45-491 limits assumed): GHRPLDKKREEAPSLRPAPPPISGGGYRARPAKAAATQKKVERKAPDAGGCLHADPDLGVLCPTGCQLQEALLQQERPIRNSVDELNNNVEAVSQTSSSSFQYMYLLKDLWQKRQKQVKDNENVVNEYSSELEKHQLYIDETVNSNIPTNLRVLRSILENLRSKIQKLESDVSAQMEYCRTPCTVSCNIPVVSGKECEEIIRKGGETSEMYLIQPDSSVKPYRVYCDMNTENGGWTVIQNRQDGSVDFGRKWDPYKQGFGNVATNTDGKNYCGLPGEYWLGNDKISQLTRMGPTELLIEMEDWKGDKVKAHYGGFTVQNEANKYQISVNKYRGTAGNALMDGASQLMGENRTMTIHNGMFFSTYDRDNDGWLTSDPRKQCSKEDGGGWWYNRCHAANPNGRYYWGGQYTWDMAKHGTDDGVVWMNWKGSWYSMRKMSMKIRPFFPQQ
T1 sequence (P02679 27-437 isoform P02679-2 limits assumed): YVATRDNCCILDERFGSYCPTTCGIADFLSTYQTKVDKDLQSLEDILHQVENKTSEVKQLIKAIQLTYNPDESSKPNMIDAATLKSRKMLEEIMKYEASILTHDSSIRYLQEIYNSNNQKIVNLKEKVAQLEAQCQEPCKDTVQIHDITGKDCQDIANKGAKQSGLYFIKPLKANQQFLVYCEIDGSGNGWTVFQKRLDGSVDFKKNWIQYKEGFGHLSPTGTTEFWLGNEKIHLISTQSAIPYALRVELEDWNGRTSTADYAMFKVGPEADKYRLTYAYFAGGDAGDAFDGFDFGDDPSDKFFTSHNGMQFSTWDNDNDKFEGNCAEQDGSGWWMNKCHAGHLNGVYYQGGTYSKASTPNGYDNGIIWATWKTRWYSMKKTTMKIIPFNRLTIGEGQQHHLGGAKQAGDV
Description: Binding of tPA to fibrin was measured using the conventional method of Rijken et al., J. Biol. Chem. 257, 2920-2925 (1982). This method involves mixing thrombin with a solution containing tPA and fibrinogen, centrifuging the resulting clot and measuring the concentration of tPA antigen in the supernatant. In a final volume of 200 μl, the following were combined: 200 ng/ml single chain melanoma tPA, 200 μg/ml human fibrinogen, 15 μg/ml tPA peptide, 1.1 mg/ml bovine serum albumin, 0.55 mg/ml bovine gamma globulin and 10 mM ε-amino caproic acid in PBSAT. Controls omitted fibrinogen, peptide or both. Mixtures were clotted by the addition of 1 unit/ml bovine thrombin, incubated one hour at room temperature and centrifuged. tPA antigen in the supernatant was measured by conventional ELISA and the percentage bound calculated by difference using the antigen level of a control mixture with no fibrinogen as 0% bound. […] An ELISA assay kit for tPA and PAI-1 was purchased from American Diagnostica Inc. and assays were performed according to printed protocols supplied by the manufacturer with the kit except that a single lot of melanoma tPA from American Diagnostica Inc. (product 111, lot 47-01) was used as the antigen standard throughout this work and 5.0 mg/ml of BSA and 2.5 mg/ml of bovine gamma globulin were included in ELISA buffers.

[2] = biological target: T2, PAI-1 (Homo sapiens, UniProt P05121); test: PAI-1 inhibition studies: protection of tPA from inactivation by PAI-1, residual tPA enzymatic activity by indirect amidolytic assay; type: biochemical; conditions: 1.5 μg/ml PAI-1, 50 ng/ml tPA; for maintenance of tPA activity in the presence of PAI-1 (FIG. 1): 100 μg/ml peptide, one hour at 37° C.; for effect of peptide concentration on the maintenance of tPA activity in the presence of PAI-1 (FIG. 2): several peptide concentrations (30-120 μg/ml)
T2 construct: purchased American Diagnostica, Inc
T2 sequence (P05121 24-402): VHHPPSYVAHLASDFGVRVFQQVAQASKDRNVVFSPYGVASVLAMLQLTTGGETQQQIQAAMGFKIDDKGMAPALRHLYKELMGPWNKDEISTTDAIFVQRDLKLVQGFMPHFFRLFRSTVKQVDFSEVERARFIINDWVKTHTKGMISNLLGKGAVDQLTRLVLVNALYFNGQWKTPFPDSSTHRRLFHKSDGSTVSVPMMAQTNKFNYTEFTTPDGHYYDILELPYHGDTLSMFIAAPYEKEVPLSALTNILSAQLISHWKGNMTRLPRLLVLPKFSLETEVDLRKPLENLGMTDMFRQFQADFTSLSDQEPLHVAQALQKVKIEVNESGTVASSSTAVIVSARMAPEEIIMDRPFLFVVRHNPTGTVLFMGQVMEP
Description: In each case, peptide and PAI-1 were first mixed, followed by the addition of tPA. Final concentrations were: 100 μg/ml peptide, 1.5 μg/ml PAI-1 and 50 ng/ml tPA in phospate buffered saline containing 0.01% sodium azide and 0.01% Tween 80%. After incubation for one hour at 37° C., samples were examined for remaining tPA enzymatic activity. The error bars represent the range of duplicate measurements of the tPA enzymatic activity in μAU/min/min.
Results are expressed as the percentage of tPA enzymatic activity remaining after incubation with tPA, PAI-1 and peptide relative to that seen with tPA alone.
An indirect amidolytic assay for tPA activity was performed by a conventional method as described by Ranby and Wallen, Prog. Fibrinolytics 5, 233-235 (1981) and Ranby, Biochim. Biophys. Acta 740, 461-469 (1982) but with the following modifications. The assay mixture contained 50 μg/ml human glu-plasminogen, 1 mM plasmin substrate S-2251, 130 μg/ml fibrinogen fragment stimulator, and 0 to 20 ng/ml tPA sample in phosphate-buffered saline containing 0.01% sodium azide and 0.01% Tween 80 (PBSAT) in a final volume of 100 μl. The assay was performed in a 96-well microtitration plate at room temperature. Reaction mixtures were overlaid with 50 μl mineral oil to prevent evaporation. Periodic readings were taken at 405 nm and referenced at 650 nm using a Molecular Devices Vmax plate reader. The first derivative of absorbance with respect to time was calculated and the slope of a plot of dA/dt vs time was proportional to tPA activity. Results were expressed in absorbance units (μ AU/min^2) or as a percentage of control.
The effect of peptides on the inactivation of tPA by PAI-1 was measured by incubating 1.5 μg/ml PAI-1, 30-120 μg/ml peptide and 50 ng/ml tPA in PBSAT. PAI-1 and peptide were first mixed, followed by the addition of tPA. After one hour at 37° C., residual tPA enzymatic activity was measured either immediately or after the samples had been frozen and stored.
tPA was incubated with increasing concentrations of PAI-1 for one hour at 37° C. and the incubate was then assayed for residual tPA enzymatic activity.

Row | % Bound (binding of tPA to fibrin) [1] [%] | maintenance of tPA activity in the presence of PAI-1 (FIG. 1) [2] | effect of peptide concentration on the maintenance of tPA activity in the presence of PAI-1 (FIG. 2) [2] | Substance
1 | 57 | no effect | no effect | LGKHNYCRNPDGDAKPWCHVLKNRR-amide (LGKHNYCRNPDGDAKPWCHVLKNRR-NH2; cysteine pairing not given here) [Peptide 166, 25 amino acid synthetic peptide amide fragment of native human tPA]
2 | 53 | active but with a lesser effect | steady, progressive increase in activity | NPDRDSKPWCYVFKAGKYSSEFCST-amide (NPDRDSKPWCYVFKAGKYSSEFCST-NH2; cysteine pairing not given here) [Peptide 158, 25 amino acid synthetic peptide amide fragment of native human tPA]

Row | Substance | % Bound (binding of tPA to fibrin) [1] [%] | maintenance of tPA activity in the presence of PAI-1 (FIG. 1) [2] | effect of peptide concentration on the maintenance of tPA activity in the presence of PAI-1 (FIG. 2) [2]
3 | VPVKSCSEPRCFNGGTCQQALYFSD-amide (VPVKSCSEPRCFNGGTCQQALYFSD-NH2; cysteine pairing not given here) [Peptide 148, 25 amino acid synthetic peptide amide fragment of native human tPA] | 50 | especially effective at maintaining tPA activity | rose dramatically and plateaued
